Experimental data reported in the supplement of paper PMC9170038.

Columns and labels:
[1] = test system: MS2 coat protein; test: apparent KD of MS2 coat protein, switch ON state; designed switch direction (-1 OFF switch, 1 ON switch): -1; higher = weaker reporter binding; conditions: FMN input: 0 or 200 uM; Eterna round: R93 (includes R88 designs)
Method in brief: (§1)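 Titrations with SNAP-549-labelled MS2 coat protein ran in twofold steps from 0.7 or 1.5 nM to 3 µM, each step taking 0.8–1.5 h at the start and 10–20 min toward the end. The targets were designed RNA switches transcribed on-chip from Illumina sequencing clusters, held in 100 mM Tris-HCl pH 7.5, 80 mM KCl, 4 mM MgCl2, without or with constant ligand. Apparent KD was taken per design as the median of normalised cluster binding-curve fits.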

[2] = test system: MS2 coat protein; test: apparent KD of MS2 coat protein, switch OFF state (with FMN for OFF switches, without FMN for ON switches); designed switch direction (-1 OFF switch, 1 ON switch): -1; higher = weaker reporter binding; conditions: FMN input: 0 or 200 uM; Eterna round: R93 (includes R88 designs)
Method in brief: as §1

| Sequence | apparent KD of MS2 coat protein [1] [nM] | apparent KD of MS2 coat protein [2] [nM] |
| --- | --- | --- |
| AUAAAACAUGAGGAUCACCCAUGUGAGGAUAUGCGAAACAAAGAAACAAACAAACAAAGCAGAAGGCACAAUAA [Amethyst 7] | 24.2 | 39.2 |
| AACAGGUUAGGAUAUGUGUAACAAAUAAAAAAAAUAUAAACACAGAAGGAACAUGAGGAUCACCCAUGUUAACA [May 28] | 24.4 | 17 |
| AGUAUGCGAGGAUAUACAUGAGGAUCACCCAUGUGAGAGAUAAGUGUGAGAAAGACAAGUAGAAGGCGCGUACA [JL Lego Mod 27] | 106 | 331 |
| AACAAACAUGAGGAUCACCCAUGUCAGGAUAUGCAAAUAACAAACAACAAACAACAAAGCAGAAGGGAUAGGAA [Mat - Exclusion 1 - Eli mod - D52] | 23.3 | 21.2 |
| AAGAAACAUGAGGAUCACCCAUGUGAGGAUAUGGAAGAAAGAAAGAAAGAAAGAAGAACCAGAAGGCACAAAGG [Publius Rubrius Barbarus] | 144 | 105 |
| AAAAAAGCAGGAUAUACGUACAUGUCAAAAGACGUGAAGGGACAUGAGGAUCACCCAUGUAGAAGGGUUAAGAA [JL Stem Breaker 17] | 220 | 49.4 |
| CAGUGACAUGAGGAUCACCCAUGUUAGGAUAUGCGUGUUAGAAAAAAAAAGUUAAUAAGCAGAAGGAACAGUGG [JR_Exc001_Sub311] | 40.8 | 61.6 |
| AAAUUGUCAGGAUAUCCAGCUAUACGAAAUAUAUAUACACGGGAGAAGGGACAUGAGGAUCACCCAUGUUUGAA [JR_Exc004_Sub702] | 34 | 27.6 |
| AACAGUACAGGAUAUACAUGAGGAUCACCCAUGUGAAAAUAAAGUGGCGUACCACGAAGUAGAAGGGUACUGGA [Ruby 58] | 21.1 | 72.5 |
| CUCAUGUCAGGAUAUGUAGCAUGAUACGAAAGUAUCAUGCUACAGAAGGGACAUGAGGAUCACCCAUGUAAAAA [Ex4: 942] | 20.2 | 33.9 |
| AAUUAGUGAGGAUAUACGGGAGGGAGGGAGGGAGGGAGGGAGUAGAAGGCACAUGAGGAUCACCCAUGUAAUUA [The West [Loop] is Red] | 20.8 | 49.9 |
| AACGUACAUGAGGAUCACCCAUGUUAGGAUAUGCCGGGUUAGAGCCAACUAAAAAACCGUAGAAGGGACGAAAA [Bilbo Confounded 11 - Jieux - Exclusion 1] | 27.6 | 30.2 |
| AAAAAGCGAGGAUAUACAAAAGAGCGAAAGCUCAAAAGGAAACAUGAGGAUCACCCAUGUAGAAGGCGCAAGAA [John Whine] | 23.1 | 20.1 |
| AAGAAUGCAGGAUAUACAAGAAAGAAAGAAAAGAAAAGAAAACAUGAGGAUCACCCAUGUAGAAGGGCAUAGAA [EteRNA is fun!] | 32.6 | 25 |
| AAGAAGUCAGGAUAUGCUAAAGAAAUAAAAAGAAAGAAAGAACAUGAGGAUCACCCAUGUAGAAGGGACAAGAA [Seheqenre Sankhptahi] | 72.9 | 38.9 |
| AAAACACAUGAGGAUCACCCAUGUGAGGAUAUGCUAUGGAAAUAAAAAAUAAAACAUAGCAGAAGGCACAAGGA [Mat - Exclusion 1 - Eli mod - D45] | 31.1 | 49.1 |
| AAAAAGCUAGGAUAUACGAAAAAAAAGGGUAAAAAAUAAAAACAUGAGGAUCACCCAUGUAGAAGGAGCAAAAA [Mat - Exclusion 2 - Tesla mod - D36] | 43.2 | 77.9 |

| Sequence | apparent KD of MS2 coat protein [1] [nM] | apparent KD of MS2 coat protein [2] [nM] |
| --- | --- | --- |
| AGUCAUACAGGAUAUACAUGAGGAUCACCCAUGUUUAUCCUAAAAAAAUAAAAAACAUGUAGAAGGGUAUGACA [EX3 216: Super Stable 16] | 12.9 | 13.7 |
| AAGAAACUAGGAUAUACAAGGAAGAAAGAAAAGAAAAGAAAACAUGAGGAUCACCCAUGUAGAAGGAGUUAGAA [EteRNA is fun!] | 36.3 | 31.3 |
| AAGAAGUCAGGAUAUGCGAAGGCGUCUGAUAGACGAGGCUAGCAGAAGGGACAUGAGGAUCACCCAUGUAAAGA [Mat - Exclusion 4 - D83] | 45 | 55 |
| AAAGUGCAAGGAUAUAUAUGAAAAGUUACGAAAGUAACAAAACAUGAGGAUCACCCAUGUAGAAGGUGCACAAA [Seclusion (MS2 riboswitches - Exlclusion 2)] | 24.6 | 18.3 |
| AAAAUACAUGAGGAUCACCCAUGUGAGGAUAUCUUAAAGGGAAUAAAAUAACUCAAAAAGAGAAGGCGCAAAAA [Ex 1 May 30] | 34.6 | 32 |
| AACAAACAUGAGGAUCACCCAUGUCAGGAUAUGCAAAUAACAAACAACAAACAACAAAGCAGAAGGGACGACAA [Mat - Exclusion 1 - Eli mod - D51] | 22.1 | 25.6 |
| AAAAAACAUGAGGAUCACCCAUGUUAGGAUAUGCUAUGGAAAAUAAAAAAUAAACAUAGCAGAAGGAACAAAAA [Mat - Exclusion 1 - Eli mod - D30] | 21.2 | 32.6 |
| GACCAGUGAGGAUAUGUAAAAAAAAGAGAAGAGAAGAGAGAACAGAAGGCACAUGAGGAUCACCCAUGUAGGGA [Default title] | 143 | 170 |
| AACAAGUCAGGAUAUGUUAAAGGUUACGAAAGGGAUAAAGGGCAGAAGGGACAUGAGGAUCACCCAUGUAAUAA [And All that Jazx] | 48 | 38.2 |
| AAGUAGCUAGGAUAUACAUAGAUACAGAUUCAUGUAGAACUACAUGAGGAUCACCCAUGUAGAAGGAGCUAAUA [AJ 35] | 31.4 | 60.3 |
| AGCAAGUAAGGAUAUGCGAAGUCAGGACACACACUGACGAAGCAGAAGGUACAUGAGGAUCACCCAUGUAAGCA [JR_Exclusion-4 65% 3] | 24.6 | 18.7 |
| AACAGUACAGGAUAUACAUGAGGAUCACCCAUGUGAGAAUUAAGUGGCGAACCACAAAGUAGAAGGGUACUGGA [Mat - Exclusion 3 - JL mod - D1] | 43.1 | 469 |
| AAAAAGGUAGGAUAUACAUGAGGAUCACCCAUGUAAAAAAAUGGAGAAAAAAACAAUUGUAGAAGGGCCAAAAA [Ex3 Malc#7] | 38.8 | 61.6 |
| AAGAAUGUAGGAUAUACAAGGAAGAAAGAAAAGAAAAGAAAACAUGAGGAUCACCCAUGUAGAAGGACAUAGAA [EteRNA is fun!] | 23.6 | 18.2 |
| AAAAGCUCAGGAUAUACGGUCUGUUGUUGAGAAAUAAAAAAACAUGAGGAUCACCCAUGUAGAAGGGAGCGAAA [Exclusion2-cac3] | 44.4 | 111 |
| CACGUACAUGAGGAUCACCCAUGUUAGGAUAUGCCGGGUAAGAGAAAACUAAAAAUCAGCAGAAGGGACGAAAC [Bilbo Confounded 16 - Jieux - Exclusion 1] | 36.7 | 32.3 |
| AAAAACUCAGGAUAUACAUGAGGAUCACCCAUGUAAAAAAAAAAAAAGGGAAAAAAAAGUAGAAGGGAGAAAAA [Semenre] | 25.5 | 37.2 |
